Measured values reported in patent US11278600B2, “Human alpha-galactosidase variants” (Codexis, Inc., priority 2014, dated 2022).
Numbering of substitutions follows the chain as printed.

B1: 684 (protein)
chain: LDNGLARTPTMGWLHWERFMCNLDCQEEPDSCISEKLFMEMAERMVTEGWKDAGYEYLCIDDCWMAPQRDSEGRLQADPQRFPHGIRQLANHVHSKGLKLGIYADVGNKTCAGFPGSFGYYDIDAQTFADWGVDLLKFDGCYCDSLENLADGYKHMSLALNRTGRPIVYSCEWPLYMWPFQKPNYTEIRQYCNHWRNFADIDDSWASIKSILDWTSRNQERIVDVAGPGGWNDPDMLVIGNFGLSWDQQVTQMALWAIMAAPLFMSNDLRAISPQAKALLQDKDVIAINQDPLGKQGYQLRKGDNFEVWERPLSGDAWAVAIINRQEIGGPRSYTIPVASLGKGVACNPACFITQLLPVKRQLGFYNATSRLKSHINPTGTVLLQLENTMQTSLKDLL
modifications: Synthetic Polypeptide sequence of Variant No. 684 of mature Human GLA
B2: 685 (protein)
chain: B1 chain with E43D, M253W, A257G, N305L
modifications: Synthetic Polypeptide sequence of Variant No. 685 of mature Human GLA
B3: 641 (protein)
chain: B1 chain with T10P, M39E, S266P, A368W
modifications: Synthetic Polypeptide sequence of Variant No. 641 of mature Human GLA
B4: 643 (protein)
chain: B1 chain with T10P, R325S, A368W
modifications: Synthetic Polypeptide sequence of Variant No. 643 of mature Human GLA
B5: 646 (protein)
chain: B1 chain with G113C, A368W
modifications: Synthetic Polypeptide sequence of Variant No. 646 of mature Human GLA
B6: 691 (protein)
chain: B1 chain with T10P, A368W
modifications: Synthetic Polypeptide sequence of Variant No. 691 of mature Human GLA
B7: 687 (protein)
chain: B1 chain with Q290R
modifications: Synthetic Polypeptide sequence of Variant No. 687 of mature Human GLA
B8: 688 (protein)
chain: B1 chain with P228Q, A368W
modifications: Synthetic Polypeptide sequence of Variant No. 688 of mature Human GLA
B9: 644 (protein)
chain: B1 chain with L237P, A368W
modifications: Synthetic Polypeptide sequence of Variant No. 644 of mature Human GLA
B10: 690 (protein)
chain: B1 chain with T10P, M156V, A368W
modifications: Synthetic Polypeptide sequence of Variant No. 690 of mature Human GLA
B11: 642 (protein)
chain: B1 chain with T10P, E43D, A261G, N305L
modifications: Synthetic Polypeptide sequence of Variant No. 642 of mature Human GLA
B12: 689 (protein)
chain: B1 chain with N305L, A368W
modifications: Synthetic Polypeptide sequence of Variant No. 689 of mature Human GLA
B13: 645 (protein)
chain: B1 chain with P174S, A368W
modifications: Synthetic Polypeptide sequence of Variant No. 645 of mature Human GLA
B14: 692 (protein)
chain: B1 chain with W256L, A368W
modifications: Synthetic Polypeptide sequence of Variant No. 692 of mature Human GLA
B15: 693 (protein)
chain: B1 chain
modifications: Synthetic Polypeptide sequence of Variant No. 693 of mature Human GLA

What was measured:
Type in all cases: biochemical
[1] = HTP-analysis of supernatants pretreated with acid (MUGal hydrolysis); details: activity of the variant/activity of Rd7BB (SEQ ID NO: 44); challenge at pH 3.5
Outline: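 GLA variants were secreted from INVSc1 yeast grown 66-84 h at 30° C. in SD-Ura with 2% glucose; supernatants were mixed with McIlvaine buffer pH 3.3-4.3 and held at 37° C. for 1-3 h. Residual activity on MUGal at pH 4.8 was then measured by fluorescence.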

[2] = HTP-analysis of yeast culture supernatants, no challenge (MUGal hydrolysis); details: activity of the variant/activity of Rd7BB (SEQ ID NO: 44)
Outline: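 Activity read as 4-methylumbelliferyl α-D-galactopyranoside hydrolysis: fluorescence (355/448 nm) after sodium carbonate stop, following 30-180 min at 37° C with 2 mM MUGal stock at pH 4.6–4.8. Enzyme source is unchallenged culture supernatant of INVSc1 yeast expressing GLA variants, grown 66-84 h at 30° C.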

[3] = HTP-analysis of supernatants pretreated with base (MUGal hydrolysis); details: activity of the variant/activity of Rd7BB (SEQ ID NO: 44); challenge at pH 7.5
Outline: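 Supernatants from INVSc1 yeast expressing GLA variants (SD-Ura, 66-84 h, 30° C) were mixed with McIlvaine buffer pH 7.0-8.2 or 200 mM sodium bicarbonate pH 9.1-9.7 and held 1-18 h at 37° C. Residual activity was then measured on MUGal at pH 4.8/4.3, 37° C, 30-180 min, by fluorescence (Ex 355/Em 448 nm).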

| Molecule | Relative Activity of GLA Variants After Challenge at pH 3.5 [1] | Relative Activity of GLA Variants After No Challenge (NC) [2] | Relative Activity of GLA Variants After Challenge at pH 7.5 [3] |
| --- | --- | --- | --- |
| B1 | + (>0.5 to 1.5 relative activity over Rd7BB (SEQ ID NO: 44)) | + (>0.5 to 1.5 relative activity over Rd7BB (SEQ ID NO: 44)) | + (>0.5 to 1.5 relative activity over Rd7BB (SEQ ID NO: 44)) |
| B2 | − (<0.5 relative activity to Rd7BB (SEQ ID NO: 44)) | + (>0.5 to 1.5 relative activity over Rd7BB (SEQ ID NO: 44)) | − (<0.5 relative activity to Rd7BB (SEQ ID NO: 44)) |
| B3 | − (<0.5 relative activity to Rd7BB (SEQ ID NO: 44)) | − (<0.5 relative activity to Rd7BB (SEQ ID NO: 44)) | − (<0.5 relative activity to Rd7BB (SEQ ID NO: 44)) |
| B4 | − (<0.5 relative activity to Rd7BB (SEQ ID NO: 44)) | + (>0.5 to 1.5 relative activity over Rd7BB (SEQ ID NO: 44)) | + (>0.5 to 1.5 relative activity over Rd7BB (SEQ ID NO: 44)) |
| B5 | − (<0.5 relative activity to Rd7BB (SEQ ID NO: 44)) | − (<0.5 relative activity to Rd7BB (SEQ ID NO: 44)) | − (<0.5 relative activity to Rd7BB (SEQ ID NO: 44)) |
| B6 | + (>0.5 to 1.5 relative activity over Rd7BB (SEQ ID NO: 44)) | + (>0.5 to 1.5 relative activity over Rd7BB (SEQ ID NO: 44)) | + (>0.5 to 1.5 relative activity over Rd7BB (SEQ ID NO: 44)) |
| B7 | − (<0.5 relative activity to Rd7BB (SEQ ID NO: 44)) | + (>0.5 to 1.5 relative activity over Rd7BB (SEQ ID NO: 44)) | − (<0.5 relative activity to Rd7BB (SEQ ID NO: 44)) |
| B8 | + (>0.5 to 1.5 relative activity over Rd7BB (SEQ ID NO: 44)) | + (>0.5 to 1.5 relative activity over Rd7BB (SEQ ID NO: 44)) | − (<0.5 relative activity to Rd7BB (SEQ ID NO: 44)) |
| B9 | − (<0.5 relative activity to Rd7BB (SEQ ID NO: 44)) | − (<0.5 relative activity to Rd7BB (SEQ ID NO: 44)) | − (<0.5 relative activity to Rd7BB (SEQ ID NO: 44)) |
| B10 | − (<0.5 relative activity to Rd7BB (SEQ ID NO: 44)) | + (>0.5 to 1.5 relative activity over Rd7BB (SEQ ID NO: 44)) | − (<0.5 relative activity to Rd7BB (SEQ ID NO: 44)) |
| B11 | + (>0.5 to 1.5 relative activity over Rd7BB (SEQ ID NO: 44)) | + (>0.5 to 1.5 relative activity over Rd7BB (SEQ ID NO: 44)) | + (>0.5 to 1.5 relative activity over Rd7BB (SEQ ID NO: 44)) |
| B12 | + (>0.5 to 1.5 relative activity over Rd7BB (SEQ ID NO: 44)) | + (>0.5 to 1.5 relative activity over Rd7BB (SEQ ID NO: 44)) | + (>0.5 to 1.5 relative activity over Rd7BB (SEQ ID NO: 44)) |
| B13 | + (>0.5 to 1.5 relative activity over Rd7BB (SEQ ID NO: 44)) | + (>0.5 to 1.5 relative activity over Rd7BB (SEQ ID NO: 44)) | − (<0.5 relative activity to Rd7BB (SEQ ID NO: 44)) |
| B14 | − (<0.5 relative activity to Rd7BB (SEQ ID NO: 44)) | − (<0.5 relative activity to Rd7BB (SEQ ID NO: 44)) | − (<0.5 relative activity to Rd7BB (SEQ ID NO: 44)) |
| B15 | + (>0.5 to 1.5 relative activity over Rd7BB (SEQ ID NO: 44)) | + (>0.5 to 1.5 relative activity over Rd7BB (SEQ ID NO: 44)) | + (>0.5 to 1.5 relative activity over Rd7BB (SEQ ID NO: 44)) |
